Patent US20160024207A1 (University of Texas, published 2016)
Blank lines part the entries; values can stand above or below the molecule they belong to.

Experiments:
[1] = molecular target: human EpCAM expressed on human carcinoma cells (PC3, MCF7) (human) (UniProt P16422); assay: NIR flow cytometry, IRDye 800CW-labeled isotype control mAb on PC3 cells
[2] = molecular target: recombinant human (rhu) EpCAM/Fc (960-EP, R&D Systems) (human) (UniProt P16422); assay: flow cytometry of E. coli displaying scFv (APEx), EpCAM-Fc then fluorescent secondary antibody
[3] = molecular target: human EpCAM expressed on human carcinoma cells (PC3, MCF7) (human) (UniProt P16422); assay: flow cytometry on MCF7 cells, mAb concentration 32 ng/ml, fluorescently labeled secondary antibody, 10,000 cells
[4] = molecular target: human EpCAM expressed on human carcinoma cells (PC3, MCF7) (human) (UniProt P16422); assay: flow cytometry on MCF7 cells, mAb concentration 160 ng/ml, fluorescently labeled secondary antibody, 10,000 cells
[5] = molecular target: human EpCAM expressed on human carcinoma cells (PC3, MCF7) (human) (UniProt P16422); assay: flow cytometry on MCF7 cells, mAb concentration 6.4 ng/ml, fluorescently labeled secondary antibody, 10,000 cells
[6] = molecular target: T1, recombinant human (rhu) EpCAM/Fc (960-EP, R&D Systems) (human, UniProt P16422 24-265); assay: SPR, ratio of Fab KD values, reference mAb 9601 Fab
T1 construct: Bought fusion protein; not shown: Fc part
T1 sequence (looked up): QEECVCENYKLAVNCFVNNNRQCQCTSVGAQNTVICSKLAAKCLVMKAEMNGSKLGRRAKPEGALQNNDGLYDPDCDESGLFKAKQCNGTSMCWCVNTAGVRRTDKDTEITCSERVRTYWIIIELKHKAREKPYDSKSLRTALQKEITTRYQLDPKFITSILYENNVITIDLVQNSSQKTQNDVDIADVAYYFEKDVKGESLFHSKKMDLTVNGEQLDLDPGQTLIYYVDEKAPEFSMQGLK
Method: (§1) In order to discriminate between monovalent and multivalent interactions on quantitative SPR measurements of KD, the binding affinities of the Fab fragments of mAbs were measured using SPR and a Biacore T100 instrument (GE Healthcare). Two flow cells of a CM5 chip were coated with goat anti-human IgG (Fc-specific) (Jackson ImmunoResearch) to approximately 8000 resonance units (RU) with an NHS/EDC Amine Coupling Kit BR-1000-50 (GE Healthcare). All measurements were made at 25° C. using HBS-EP+(10 mM HEPES, 150 mM NaCl, 3 mM EDTA, 0.05% v/v Tween 20, pH 7.4) as running buffer. EpCAM/Fc ligand (R&D Systems) was diluted in HBS-EP+ to 0.5 μg/ml and applied to the coated chip surface. Fab fragments were then tested at five different molar concentrations starting at 50 nM after performing a two-fold dilution series. Flow cells were regenerated with 100 mM phosphoric acid. All samples were applied in duplicate.

[7] = molecular target: T1, recombinant human (rhu) EpCAM/Fc …; assay: SPR (Biacore T100), EpCAM/Fc captured, Fab as analyte; Fab fragment, not IgG
Method: as §1

[8] = molecular target: T1, recombinant human (rhu) EpCAM/Fc …; assay: SPR (Biacore T100), EpCAM/Fc captured on anti-human IgG Fc chip, Fab as analyte, 25 C
Method: as §1

[9] = molecular target: T2, murine EpCAM on mouse 4T1 mammary carcinoma cells (mouse, UniProt Q99JW5 24-315); assay: flow cytometry on mouse 4T1 cells, PE-labeled anti-mouse IgG
T2 construct: whole, on cells; also called mouse EpCAM
T2 sequence (looked up): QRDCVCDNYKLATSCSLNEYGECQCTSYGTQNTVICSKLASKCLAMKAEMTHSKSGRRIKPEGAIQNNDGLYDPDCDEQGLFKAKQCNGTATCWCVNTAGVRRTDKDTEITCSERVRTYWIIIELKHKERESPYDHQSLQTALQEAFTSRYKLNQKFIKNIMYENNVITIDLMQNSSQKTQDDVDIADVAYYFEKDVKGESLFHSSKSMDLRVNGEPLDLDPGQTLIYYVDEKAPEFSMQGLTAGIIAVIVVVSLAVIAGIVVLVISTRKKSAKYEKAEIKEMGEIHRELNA
Method: To determine whether mAbs specific for human EpCAM cross-react with murine EpCAM, the human cell line MCF7 (as described above) and 4T1 cells (mouse mammary carcinoma, CRL2539™, ATCC) were used. Hybridoma cells were grown and mAbs purified as above-described. Rat anti-mouse EpCAM, mAb G8.8 (Developmental Studies Hybridoma Bank, University of Iowa, Iowa City, Iowa) was utilized as a positive control for detection of EpCAM on the surface of 4T1 cells. Following incubation (20 min, on ice) with mAb, cells were washed with PBS-BSA and either DyLIGHT-488 conjugated donkey anti-rat IgG (Jackson ImmunoResearch) or PE-conjugated donkey F(ab′) 2 anti-mouse IgG (Jackson ImmunoResearch) was added at 5 μg per sample and incubated for an additional 20 min for detecting cells bound by rat anti-mouse or mouse anti-human EpCAM mAb, respectively. Cells were washed again with PBS-BSA and fixed in 2% paraformaldehyde prior to analyzing (10,000 events) on a BD FACSCalibur Flow Cytometer (BD Biosciences) using WinMDI2.9 software.

[10] = molecular target: T3, human EpCAM expressed on human carcinoma cells (PC3, MCF7) (human, UniProt P16422 24-314); assay: flow cytometry on PC3 cells, 5 µg/ml mAb, PE-labeled anti-mouse IgG
T3 construct: whole, on cells; also called native EpCAM; surface expressed EpCAM
T3 sequence (looked up): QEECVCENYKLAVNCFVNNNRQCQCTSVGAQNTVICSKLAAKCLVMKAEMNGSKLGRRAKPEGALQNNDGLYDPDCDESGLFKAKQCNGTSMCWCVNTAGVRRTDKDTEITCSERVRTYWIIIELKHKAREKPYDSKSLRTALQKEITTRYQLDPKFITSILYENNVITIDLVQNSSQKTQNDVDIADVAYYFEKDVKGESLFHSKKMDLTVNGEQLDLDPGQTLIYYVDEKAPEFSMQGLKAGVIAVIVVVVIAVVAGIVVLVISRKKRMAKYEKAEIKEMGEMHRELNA
Method: PC3 cells (human prostate adenocarcinoma line, CRL1435™, ATCC, Manassas, Va.), grown to 80%-100% confluency in DMEM with 10% FBS, were treated with Trypsin-EDTA and resuspended in PBS containing 2% bovine serum albumin (BSA). One million cells per well were labeled with 5 μg/ml of mAb in a 200-μl volume and incubated on ice for 20 min. After washing with PBS-BSA, phycoerythrin (PE)-conjugated donkey F(ab′)2 anti-mouse IgG (Jackson ImmunoResearch, West Grove, Pa.) at 5 μg per sample was added for an additional 20-min incubation. Cells were washed again with PBS-BSA and fixed in 2% paraformaldehyde prior to analyzing (10,000 events) on a BD FACSCalibur Flow Cytometer (BD Biosciences, San Jose, Calif.). Analyses of mean fluorescence intensities (MFI) were performed using WinMDI2.9 software.

[11] = molecular target: T1, recombinant human (rhu) EpCAM/Fc …; assay: Biacore kinetic analysis of scFv
[12] = molecular target: recombinant human (rhu) EpCAM/Fc (960-EP, R&D Systems) (human) (UniProt P16422); assay: Biacore kinetic analysis of scFv
[13] = molecular target: human EpCAM expressed on human carcinoma cells (PC3, MCF7) (human) (UniProt P16422); assay: flow cytometry on PC3 cells, scFv then fluorophore-conjugated secondary antibody

- Biological Activity, % (percentage of PC3 cells stained) [1]: 0.7%
- MFI [1]: 149 MFI units
Molecule: commercial IgG2b isotype control mAb (BD Pharmingen) (antibody)

- Biological Activity, % (percentage of PC3 cells stained) [1]: 3.2%
- MFI [1]: 125 MFI units
Molecule: in-house IgG1 isotype control mAb 69 (antibody)

- MFI [2]: 13 MFI
Molecule: control scFv with no affinity to EpCAM (displayed on E. coli)

- MFI [3]: 106
- MFI [4]: 321
- MFI [5]: 38
Molecule: Veridex anti-EpCAM mAb VU-1D9 (antibody)

- fold increase in affinity above mAb 9601 [6]: 28 fold
- Kd [7]: 0.54 nM
- Kd [8]: 0.53 nM
- koff [8]: 0.00012 s⁻¹
- kon [8]: 220000 M⁻¹ s⁻¹
B1: Fab fragment of mAb 153 (Fab, V domains shown)
VH: QVQLQQSGAELVKPGTSVKLSCKASGYNFTSYWINWVKLRPGQGLEWIGDIYPGSGNSHYNEKFKSKATLTVDTSSSTAYMQLSSLASGDSALYYCARNYYGSSPFPMDYWGQGTSVTVSS
VL: DIVMTQSPSSLIVTAGEKVTMSCKSSQSLLNSGNQKNYLTWYQQKPGQPPKLLIYWASTRESGVPDRFTGSGSGTDFTLTLNSAQAEDLAVYYCQNDYTYPLTFGAGTKLEIK

- binding result [9]: no binding
- MFI fold increase relative to PE-conjugated secondary antibody alone [10]: 4.8 fold
B2: anti-EpCAM monoclonal antibody 153 (antibody, V domains shown)
VH: B1 VH
VL: B1 VL
notes: In-house mouse IgG1 from hybridoma; In the NIR flow cytometry it carried IRDye 800CW (and DOTA)

- Kd [11]: 0.21 nM
B3: anti-EpCAM scFv 153 (scFv, V domains shown)
VH: B1 VH
VL: B1 VL

- Kd [12]: 4.14 nM
- MFI [13]: 380 MFI
- MFI [2]: 170 MFI
B4: anti-EpCAM scFv 7 (scFv, V domains shown, not shown: small tags and cut ends)
VH: QVQLQQSGPELEKPGGSVKISCKASGYSFTGYNMNWVKQSNGKSLEWIGNIDPYNGGSGFDQKFKGKATLTVDTSSSTAYMHLKSLTSEDSAVYYCAREYGSNFDYWGQGTTLTVSS
VL: DIQMTQSTSSLSASLGDRVTISCRASQDIGTYLNWYQQQADGTFKLLIYYTSRLHSGIPSRFSGSGSGTDFSLTISNLGQEDIATYFCQQGNTLPWTFGGGTKLEIK
modifications: linker not given

- binding result [9]: no binding
- MFI fold increase relative to PE-conjugated secondary antibody alone [10]: 3.9 fold
B5: anti-EpCAM monoclonal antibody 7 (antibody, V domains shown)
VH: B4 VH
VL: B4 VL
notes: In-house mouse IgG1 from hybridoma; IRDye 800CW (and DOTA) labeled in the NIR flow cytometry; also called mAb 7

- fold increase in affinity above mAb 9601 [6]: 7 fold
- Kd [8]: 2.3 nM
- koff [8]: 0.00099 s⁻¹
- kon [8]: 430000 M⁻¹ s⁻¹
B6: Fab fragment of mAb 7 (Fab, V domains shown)
VH: B4 VH
VL: B4 VL
notes: Fab made by ficin digestion of the mouse IgG1 mAb 7; also called 7 Fab; mAb 7 Fab fragment
